Consider 7 molecules from patent US20190218277A1 (Chugai, published 2019).

The target in experiment [1] is T1, Recombinant soluble E protein (0.8E-His) from DENV-1 (DENV-1, UniProt P27909 281-675).
T1 construct: also called DENV-1 E protein; DV1

The target of experiment [2] is T2, Recombinant soluble E protein (0.8E-His) from DENV-2 (DENV-2, UniProt P14340 281-675).
T2 construct: also called DENV-2 E protein; DV2

For experiment [3], the target named is T3, Recombinant soluble E protein (0.8E-His) from DENV-4 (DENV-4, UniProt P09866 280-674).
T3 construct: also called DENV-4 E protein; DV4

Experiment [4] deals with T4, Recombinant soluble E protein (0.8E-His) from DENV-3 (DENV-3, UniProt P27915 281-673).
T4 construct: also called DENV-3 E protein; DV3
As to the kind of experiment: SPR, Biacore T200. (In SPR one partner is held on a chip, and binding of the other changes the refractive index at the surface.)

The next experiment addresses T5, human FcγRIIb (human, UniProt P31994 43-217).
T5 construct: also called human FcγR2b
T5 sequence: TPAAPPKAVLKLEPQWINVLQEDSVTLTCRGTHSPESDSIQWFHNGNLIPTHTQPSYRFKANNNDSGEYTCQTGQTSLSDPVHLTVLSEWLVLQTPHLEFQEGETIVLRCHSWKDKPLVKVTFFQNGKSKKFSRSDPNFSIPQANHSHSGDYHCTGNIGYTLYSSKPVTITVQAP
As to the kind of experiment: SPR (Biacore T200, pH 7.4, 25 °C): His-tagged FcγR captured by anti-His antibody; antibody injected at 100 nM alone (Ab alone) or as 1:1 complex with trimeric CD154 (CD154 IC); binding level / capture level [D].

For another experiment, the target named is T6, mouse FcγRI (mouse, UniProt P26151 25-297).
T6 construct: also called mFcγRI; mouse FcγR1
T6 sequence: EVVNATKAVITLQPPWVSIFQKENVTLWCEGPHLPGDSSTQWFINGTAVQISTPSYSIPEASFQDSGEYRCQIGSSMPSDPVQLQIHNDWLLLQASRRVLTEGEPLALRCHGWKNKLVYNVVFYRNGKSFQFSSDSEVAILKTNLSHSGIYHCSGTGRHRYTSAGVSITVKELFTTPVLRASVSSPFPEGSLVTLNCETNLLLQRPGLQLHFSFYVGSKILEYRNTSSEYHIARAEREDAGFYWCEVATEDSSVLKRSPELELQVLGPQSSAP
The experiment can be described thus: SPR (Biacore T200, pH 7.4, 25 °C): His-tagged FcγR captured by anti-His antibody; antibody injected at 100 nM alone (Ab alone) or as 1:1 complex with trimeric CD154 (CD154 IC); binding level / capture level [A].

For experiment [5], the target named is T7, human C1q (Calbiochem) (human, UniProt P02745 23-245; P02746 28-253; P02747 29-245). The experiment can be described thus: ELISA: antibody coated on the plate at the concentration shown, human C1q added, detected with HRP anti-human C1q, OD 450 nm. In general terms: ELISA stands for enzyme-linked immunosorbent assay.
The target of a further experiment is T8, human FcγRIIIa (158V) (human, UniProt P08637 17-208).
T8 construct: also called human FcγR3a allelic variant 158V
The experiment can be described thus: SPR (Biacore T200, pH 7.4, 25 °C): His-tagged FcγR captured by anti-His antibody; antibody injected at 100 nM alone (Ab alone) or as 1:1 complex with trimeric CD154 (CD154 IC); binding level / capture level [F].

Another experiment addresses T9, mouse FcγRIII (mouse, UniProt P08508 31-215).
T9 construct: also called mFcγRIII; mouse FcγR3
T9 chain: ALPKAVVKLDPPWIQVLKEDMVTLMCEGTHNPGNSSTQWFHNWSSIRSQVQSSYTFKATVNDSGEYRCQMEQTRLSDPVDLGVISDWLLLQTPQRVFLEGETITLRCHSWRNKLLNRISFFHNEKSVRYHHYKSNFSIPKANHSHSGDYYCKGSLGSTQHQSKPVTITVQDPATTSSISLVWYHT
As to the kind of experiment: SPR (Biacore T200, pH 7.4, 25 °C): His-tagged FcγR captured by anti-His antibody; antibody injected at 100 nM alone (Ab alone) or as 1:1 complex with trimeric CD154 (CD154 IC); binding level / capture level [C].

Another experiment has as its target T10, human FcγRIa (human, UniProt P12314 16-292).
T10 construct: also called human FcγR1a
The experiment can be described thus: SPR (Biacore T200, pH 7.4, 25 °C): His-tagged FcγR captured by anti-His antibody; antibody injected at 100 nM alone (Ab alone) or as 1:1 complex with trimeric CD154 (CD154 IC); binding level / capture level [A].

The next experiment deals with T11, human FcγRIIIb (NA1) (human, UniProt O75015 17-200).
T11 construct: also called human FcγR3b allelic variant NA1
T11 chain: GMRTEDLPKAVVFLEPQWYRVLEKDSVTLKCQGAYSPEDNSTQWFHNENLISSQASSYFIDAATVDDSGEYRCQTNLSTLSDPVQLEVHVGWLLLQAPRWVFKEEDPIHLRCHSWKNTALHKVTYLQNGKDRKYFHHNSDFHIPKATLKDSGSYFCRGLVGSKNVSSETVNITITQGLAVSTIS
The experiment can be described thus: SPR (Biacore T200, pH 7.4, 25 °C): His-tagged FcγR captured by anti-His antibody; antibody injected at 100 nM alone (Ab alone) or as 1:1 complex with trimeric CD154 (CD154 IC); binding level / capture level [G].

For a further experiment, the target named is T12, mouse FcγRIV (mouse, UniProt A0A0B4J1G0 21-203).
T12 construct: also called mFcγRIV; mouse FcγR4
T12 sequence: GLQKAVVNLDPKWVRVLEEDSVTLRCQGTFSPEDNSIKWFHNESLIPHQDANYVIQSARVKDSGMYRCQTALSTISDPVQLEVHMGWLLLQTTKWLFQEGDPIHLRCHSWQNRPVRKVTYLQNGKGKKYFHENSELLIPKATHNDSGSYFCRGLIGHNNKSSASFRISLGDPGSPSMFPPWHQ
As to the kind of experiment: SPR (Biacore T200, pH 7.4, 25 °C): His-tagged FcγR captured by anti-His antibody; antibody injected at 100 nM alone (Ab alone) or as 1:1 complex with trimeric CD154 (CD154 IC); binding level / capture level [D].

The target of experiment [6] is T7, human C1q (Calbiochem). The experiment can be described thus: ELISA: antibody coated on the plate at the concentration shown, human C1q added, detected with HRP anti-human C1q, OD 450 nm. The source holds these as a separate data set.
Another experiment deals with T13, human FcγRIIIb (NA2) (human, UniProt O75015 17-200).
T13 construct: also called human FcγR3b allelic variant NA2
T13 chain: T11 chain with R20S, N49S, D66N, V90I
The experiment can be described thus: SPR (Biacore T200, pH 7.4, 25 °C): His-tagged FcγR captured by anti-His antibody; antibody injected at 100 nM alone (Ab alone) or as 1:1 complex with trimeric CD154 (CD154 IC); binding level / capture level [H].

A further experiment concerns the target T14, mouse FcγRIIb (mouse, UniProt P08101 30-210).
T14 construct: also called mFcγRIIb; mouse FcγR2b
T14 sequence: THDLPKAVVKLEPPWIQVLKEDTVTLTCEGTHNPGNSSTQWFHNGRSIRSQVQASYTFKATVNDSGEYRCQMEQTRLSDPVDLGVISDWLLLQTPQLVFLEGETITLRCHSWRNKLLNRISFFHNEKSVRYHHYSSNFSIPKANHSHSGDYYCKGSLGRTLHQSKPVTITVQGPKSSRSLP
The experiment can be described thus: SPR (Biacore T200, pH 7.4, 25 °C): His-tagged FcγR captured by anti-His antibody; antibody injected at 100 nM alone (Ab alone) or as 1:1 complex with trimeric CD154 (CD154 IC); binding level / capture level [B].

A further experiment concerns the target T15, human FcγRIIIa (158F) (human, UniProt P08637 17-208).
T15 construct: also called human FcγR3a allelic variant 158F
The experiment can be described thus: SPR (Biacore T200, pH 7.4, 25 °C): His-tagged FcγR captured by anti-His antibody; antibody injected at 100 nM alone (Ab alone) or as 1:1 complex with trimeric CD154 (CD154 IC); binding level / capture level [E].

Numbering of substitutions follows the chain as printed. Like-named read-outs stand apart in the source and are kept apart here.

T10 sequence (P12314 16-292 limits assumed): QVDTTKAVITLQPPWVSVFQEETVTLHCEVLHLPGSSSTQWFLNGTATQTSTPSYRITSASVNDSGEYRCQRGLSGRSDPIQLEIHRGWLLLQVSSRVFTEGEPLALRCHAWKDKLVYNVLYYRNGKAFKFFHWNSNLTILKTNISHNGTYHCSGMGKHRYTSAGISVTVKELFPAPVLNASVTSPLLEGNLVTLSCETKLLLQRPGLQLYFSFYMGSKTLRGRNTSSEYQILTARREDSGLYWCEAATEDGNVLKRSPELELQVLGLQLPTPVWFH
T7 sequence (P02745 23-245 limits assumed, chain 1 of 3): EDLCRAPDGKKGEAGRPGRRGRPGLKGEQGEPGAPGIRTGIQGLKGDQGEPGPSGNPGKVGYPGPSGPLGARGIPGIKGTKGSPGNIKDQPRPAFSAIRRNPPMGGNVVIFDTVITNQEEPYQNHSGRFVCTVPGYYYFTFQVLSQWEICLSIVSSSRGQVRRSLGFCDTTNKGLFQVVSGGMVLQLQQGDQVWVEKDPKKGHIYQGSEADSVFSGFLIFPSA
T7 sequence (P02746 28-253 limits assumed, chain 2 of 3): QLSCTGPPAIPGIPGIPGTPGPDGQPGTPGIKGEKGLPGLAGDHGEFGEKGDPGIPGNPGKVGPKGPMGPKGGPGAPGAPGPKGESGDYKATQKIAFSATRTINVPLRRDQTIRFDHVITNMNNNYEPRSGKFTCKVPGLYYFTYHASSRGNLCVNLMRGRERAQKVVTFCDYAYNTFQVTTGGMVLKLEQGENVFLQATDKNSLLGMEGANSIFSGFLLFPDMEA
T7 sequence (P02747 29-245 limits assumed, chain 3 of 3): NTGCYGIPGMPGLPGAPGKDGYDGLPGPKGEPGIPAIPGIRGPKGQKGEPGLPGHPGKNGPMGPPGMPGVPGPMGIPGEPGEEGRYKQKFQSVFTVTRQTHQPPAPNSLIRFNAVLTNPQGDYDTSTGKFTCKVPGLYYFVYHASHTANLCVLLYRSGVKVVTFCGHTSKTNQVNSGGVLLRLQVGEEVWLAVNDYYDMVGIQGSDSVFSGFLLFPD

B1: DG_3CH912-SG182/3CL-SK1 (antibody, human IgG1, kappa, V domains shown)
VH: QVQLVQSGPDVEKPGASVKVSCKASGYTFTSNYIHWVRQAPGQGLEWMGVINPRGGSRASAQKFQGRITMTRDTSTSTVYMELSSLRSEDTAVYYCARGGRALFYDSYTTPFDGGSWWFDPWGQGSLVTVSS
VL: DIQLTQSPSSLSASVGDRVTFTCQASQDIRKYLNWYQQKPGKAPKLLIYDASNLKTGVPSRFSGSGSGTDFTFTISSLQPEDVATYYCQQFDDLPITFGQGTRLQIKR
With B1, the Kd (commonly a measure of binding affinity in units of concentration) was found to be 1.85 nM in experiment [1], 0.811 nM in experiment [2] and 8.78 nM in experiment [3]. Also, the binding result in [4] is given as “binds”.

B2: DG_3CH953-SG182/3CL563-SK1 (antibody, human IgG1, kappa, V domains shown)
VH: B1 VH with A59R
VL: B1 VL with K31Q, T56F, D92S, D93A
For the molecule B2, the Kd in experiment [1] came to 1.88 nM; in [2], 0.922 nM; in experiment [3] it was 8.21 nM. Besides, the binding result in experiment [4] is on record as “binds”.

B3: DG_3CH955-SG182/3CL563-SK1 (antibody, human IgG1, kappa, V domains shown)
VH: B1 VH with A59R, F112R, G114L
VL: B1 VL with K31Q, T56F, D92S, D93A
With B3, the dissociation constant (Kd) in experiment [1] amounted to 1.91 nM; in experiment [2] it was 1.04 nM; in experiment [3], 12.2 nM. For the same molecule, in experiment [4], the binding result is given as “binds”.

B4: DG_3CH955-SG182/3CL499-SK1 (antibody, human IgG1, kappa, V domains shown)
VH: B1 VH with A59R, F112R, G114L
VL: B1 VL with T56F, D93A
For the molecule B4, the Kd in experiment [1] came to 1.26 nM; in [2] it was 1.03 nM; in experiment [3], 8.26 nM. In addition, in experiment [4], the binding result is reported as “binds”.

B5: Anti-CD154 antibody (SLAPH0336a/SLAPL0336a) with Fc variant LALA+EFT+AE (SG1089) (antibody, human IgG1, kappa)
heavy: EVQLVESGGGSVKPGGSLKLSCAASGFTFSDHYMYWVRQTPEKRLEWVAIISGGGSYTSYPDSMKGRFTISRDNAKNILHLQMSSLKSEDTAMYYCTRESNGKPGFAYWGQGTLVTVSAASTKGPSVFPLAPSSKSTSGGTAALGCLVKDYFPEPVTVSWNSGALTSGVHTFPAVLQSSGLYSLSSVVTVPSSSLGTQTYICNVNHKPSNTKVDKRVEPKSCDKTHTCPPCPAPEAAAGPSVFLFPPKPKDTLMISRTPEVTCVVVDVEFEDPEVKFNWYVDGVEVHNAKTKPREEQYNSTYRVVSVLTVLHQDWLNGKEYKCKVTNKALPAPEEKTISKAKGQPREPQVYTLPPSREEMTKNQVSLTCLVKGFYPSDIAVEWESNGQPENNYKTTPPVLDSDGSFFLYSKLTVDKSRWQQGNVFSCSVMHEALHNHYTQKSLSLSP
light: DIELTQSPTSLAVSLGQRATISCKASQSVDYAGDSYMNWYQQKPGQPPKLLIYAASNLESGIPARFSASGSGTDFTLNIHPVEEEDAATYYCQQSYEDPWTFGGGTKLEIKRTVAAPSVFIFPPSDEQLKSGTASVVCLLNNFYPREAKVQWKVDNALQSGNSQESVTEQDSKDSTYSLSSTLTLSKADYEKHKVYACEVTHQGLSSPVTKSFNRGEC
With B5, the binding result is recorded as “binds” with human FcγRIIb; “no binding (tested: 100 nM)” with mouse FcγRI; “binds” in the experiment with human FcγRIIIa (158V); “binds” in the experiment with mouse FcγRIII; “binds” with human FcγRIa; “no binding (tested: 100 nM)” with human FcγRIIIb (NA1). Also, in the experiment with mouse FcγRIV, the binding result is listed as “binds”. In addition, the EC50 (read off the curve) (in general, the concentration giving half of the maximal effect) with human C1q (Calbiochem) [5] was roughly 3 µg/mL.

B6: Anti-CD154 antibody (SLAPH0336a/SLAPL0336a) with Fc variant LALA+KWES (SG1088) (antibody, human IgG1, kappa, L234A L235A)
heavy: B5 heavy with A238G, E269S, F270H, T326S, K328W, E334I, E335S
light: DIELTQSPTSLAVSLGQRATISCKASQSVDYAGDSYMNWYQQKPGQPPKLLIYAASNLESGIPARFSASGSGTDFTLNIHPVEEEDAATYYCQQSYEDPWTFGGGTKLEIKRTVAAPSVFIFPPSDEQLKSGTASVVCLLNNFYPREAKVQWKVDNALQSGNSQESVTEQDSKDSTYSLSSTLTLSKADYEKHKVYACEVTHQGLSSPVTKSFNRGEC
As to B6, the entries for the concentration giving a half-maximal response (EC50 (read off the curve)) in the experiment with human C1q (Calbiochem) [5] and with human C1q (Calbiochem) [6] were roughly 2 µg/mL and roughly 3 µg/mL, respectively. The binding result with human FcγRIa is reported as “binds”.

B7: EFT+AE (antibody, human IgG1, kappa)
heavy chain: B5 heavy with A236L, A237L
light chain: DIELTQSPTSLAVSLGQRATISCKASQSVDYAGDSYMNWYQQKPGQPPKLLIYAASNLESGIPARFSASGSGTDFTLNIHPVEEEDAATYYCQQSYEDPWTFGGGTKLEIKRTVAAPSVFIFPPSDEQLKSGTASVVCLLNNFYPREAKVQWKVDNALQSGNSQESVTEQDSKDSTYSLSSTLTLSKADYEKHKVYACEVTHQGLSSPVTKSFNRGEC
notes: also called Anti-CD154 antibody (SLAPH0336a/SLAPL0336a) with Fc variant EFT+AE (SG1086); SG1086
With B7, the binding result with human FcγRIIb, in the experiment with human FcγRIIIb (NA2), in the experiment with mouse FcγRI, with mouse FcγRIIb, in the experiment with human FcγRIIIa (158V) and in the experiment with human FcγRIIIa (158F) was “binds” throughout. Also, the binding result with mouse FcγRIII, with human FcγRIa and with mouse FcγRIV was “binds” in each case.
